Results from patent EP3766512A1 (Universität Zürich, dated 2021).

Experiments:
Assay in all cases: Protein G affinity chromatography bead
human IL-12Fc NAH = molecular target: T1, human IL-12Fc NAH (human, UniProt P29460 23-328; P29459 23-219)
T1 construct: not shown: linker between p40 and p35 of single chain IL-12 not described; junction or linker between IL-12 and Fc not described

human IL-12Fc NAE = molecular target: T2, human IL-12Fc NAE (human, UniProt P29460 23-328; P29459 23-219)
T2 construct: not shown: linker between p40 and p35 of single chain IL-12 not described; junction or linker between IL-12 and Fc not described

human IL-12Fc NAA = molecular target: T3, human IL-12Fc NAA (human, UniProt P29460 23-328; P29459 23-219)
T3 construct: not shown: linker between p40 and p35 of single chain IL-12 not described; junction or linker between IL-12 and Fc not described
T3 sequence (P29460 other isoform, or with tags, fused parts or gaps): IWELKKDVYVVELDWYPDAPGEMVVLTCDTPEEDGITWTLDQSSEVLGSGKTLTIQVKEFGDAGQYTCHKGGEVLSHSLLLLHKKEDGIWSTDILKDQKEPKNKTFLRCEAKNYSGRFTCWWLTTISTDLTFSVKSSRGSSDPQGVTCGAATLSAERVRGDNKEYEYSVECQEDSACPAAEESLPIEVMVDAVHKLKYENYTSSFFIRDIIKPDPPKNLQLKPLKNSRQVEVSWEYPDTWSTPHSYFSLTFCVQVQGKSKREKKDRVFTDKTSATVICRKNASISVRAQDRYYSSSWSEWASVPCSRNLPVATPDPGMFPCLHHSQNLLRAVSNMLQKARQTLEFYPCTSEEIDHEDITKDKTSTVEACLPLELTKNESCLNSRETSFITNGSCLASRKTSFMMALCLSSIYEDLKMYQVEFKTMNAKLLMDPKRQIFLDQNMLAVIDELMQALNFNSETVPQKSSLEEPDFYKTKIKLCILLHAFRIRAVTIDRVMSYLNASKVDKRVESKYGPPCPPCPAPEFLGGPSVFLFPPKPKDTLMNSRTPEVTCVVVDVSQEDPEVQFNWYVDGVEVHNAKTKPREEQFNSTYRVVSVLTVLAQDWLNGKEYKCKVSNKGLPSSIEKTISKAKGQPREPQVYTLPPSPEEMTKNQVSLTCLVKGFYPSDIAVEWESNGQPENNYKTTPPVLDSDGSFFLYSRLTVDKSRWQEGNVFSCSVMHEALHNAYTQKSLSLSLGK

T2 sequence (P29460 other isoform, or with tags, fused parts or gaps): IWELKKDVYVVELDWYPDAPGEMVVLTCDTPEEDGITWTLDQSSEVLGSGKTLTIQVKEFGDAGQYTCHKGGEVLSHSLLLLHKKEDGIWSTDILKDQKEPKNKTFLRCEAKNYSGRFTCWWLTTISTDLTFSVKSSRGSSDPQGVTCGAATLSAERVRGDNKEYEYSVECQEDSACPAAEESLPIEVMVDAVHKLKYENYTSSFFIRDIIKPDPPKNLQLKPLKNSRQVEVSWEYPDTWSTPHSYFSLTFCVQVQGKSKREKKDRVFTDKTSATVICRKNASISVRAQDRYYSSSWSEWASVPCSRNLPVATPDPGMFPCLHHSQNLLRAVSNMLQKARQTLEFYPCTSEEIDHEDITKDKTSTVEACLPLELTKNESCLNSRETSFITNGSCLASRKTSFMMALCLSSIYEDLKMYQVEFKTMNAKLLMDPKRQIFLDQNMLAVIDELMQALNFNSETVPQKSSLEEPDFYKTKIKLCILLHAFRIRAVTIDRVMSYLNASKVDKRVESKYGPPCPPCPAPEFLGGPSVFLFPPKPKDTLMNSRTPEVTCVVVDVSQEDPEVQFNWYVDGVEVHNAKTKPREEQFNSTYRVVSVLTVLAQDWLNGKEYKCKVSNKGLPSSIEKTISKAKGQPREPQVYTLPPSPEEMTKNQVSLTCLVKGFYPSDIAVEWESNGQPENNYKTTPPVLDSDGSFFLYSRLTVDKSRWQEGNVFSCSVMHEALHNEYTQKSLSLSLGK
T1 sequence (P29460 other isoform, or with tags, fused parts or gaps): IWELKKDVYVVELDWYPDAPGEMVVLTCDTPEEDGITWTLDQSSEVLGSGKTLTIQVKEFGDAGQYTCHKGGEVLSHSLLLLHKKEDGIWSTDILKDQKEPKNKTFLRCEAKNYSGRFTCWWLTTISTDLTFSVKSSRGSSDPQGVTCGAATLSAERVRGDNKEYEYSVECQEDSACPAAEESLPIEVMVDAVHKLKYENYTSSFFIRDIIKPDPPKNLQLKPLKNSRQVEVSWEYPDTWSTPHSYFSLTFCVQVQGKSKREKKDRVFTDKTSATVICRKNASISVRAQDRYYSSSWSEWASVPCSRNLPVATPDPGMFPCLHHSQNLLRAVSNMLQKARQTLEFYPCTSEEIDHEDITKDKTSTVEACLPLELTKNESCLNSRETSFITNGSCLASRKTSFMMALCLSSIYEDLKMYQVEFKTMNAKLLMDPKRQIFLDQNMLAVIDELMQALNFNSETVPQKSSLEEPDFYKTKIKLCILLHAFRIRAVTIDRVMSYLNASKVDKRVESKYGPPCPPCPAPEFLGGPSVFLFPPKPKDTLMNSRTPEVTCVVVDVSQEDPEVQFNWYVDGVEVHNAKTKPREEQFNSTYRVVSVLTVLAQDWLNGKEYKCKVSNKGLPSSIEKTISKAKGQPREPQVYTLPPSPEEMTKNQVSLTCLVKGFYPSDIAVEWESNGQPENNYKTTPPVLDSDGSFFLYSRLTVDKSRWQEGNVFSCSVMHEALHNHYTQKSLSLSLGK

binding result (human IL-12Fc NAH): no binding | binding result (human IL-12Fc NAE): no binding | binding result (human IL-12Fc NAA): no binding
B1: Protein G (chromatography bead) (other, UniProt P19909 303-497, looked up)
chain: TYKLILNGKTLKGETTTEAVDAATAEKVFKQYANDNGVDGEWTYDDATKTFTVTEKPEVIDASELTPAVTTYKLVINGKTLKGETTTEAVDAATAEKVFKQYANDNGVDGEWTYDDATKTFTVTEKPEVIDASELTPAVTTYKLVINGKTLKGETTTKAVDAETAEKAFKQYANDNGVDGVWTYDDATKTFTVTE
